Assays:
[1] = target: RSVF dFP; assay: ELISA after 1 week at 4 °C; note: unit not given here
[2] = target: sc9-10 Cav1only 100-360; assay: ELISA after 1 week at 4 °C
[3] = target: sc9-10 Cav1only 99-360; assay: ELISA after 1 week at 4 °C
[4] = target: sc9-10 Cav1only 98-360; assay: ELISA after 1 week at 4 °C
[5] = target: RSV F DS-Cav1 (human RSV subtype A (strain A2)) (UniProt P03420); assay: ELISA after 1 week at 4 °C; note: unit not given here
[6] = target: sc9-10 DS-Cav1 N183GC,N428C; assay: BLI (Octet), antibody reactivity over time at 60 °C
[7] = target: sc9-10 DS-Cav1 A149C, Y458C S46G-S215P-K465Q (A2); assay: as above
[8] = target: sc9-10 DS-Cav1 A149C, Y458C S46G-N67I-E92D-S215P-K465Q (A2); assay: as above
[9] = target: sc9-10 DS-Cav1 A149C, Y458C S46G-E92D-S215P-K465Q (A2); assay: as above
[10] = target: sc9-10 A DS-Cav1 A149C, Y458C; assay: as above
[11] = target: sc9-10 DS-Cav1 N183GC, N428C S46G-N67I-E92D-S215P-K465Q (A2); assay: as above
[12] = target: RSV F DS-Cav1 (human RSV subtype A (strain A2)) (UniProt P03420); assay: as above
[13] = target: sc9-10 Cav1only 99-362; assay: ELISA after 1 week at 4 °C
[14] = target: sc9-10 N183GC N428C Long CAV1only; assay: ELISA after 1 week at 4 °C
[15] = target: sc9-10 Cav1only 99-361; assay: ELISA after 1 week at 4 °C
[16] = target: sc9-10 Cav1only 369-455; assay: ELISA after 1 week at 4 °C
[17] = target: sc9-10 A149C Y458C Long CAV1only; assay: ELISA after 1 week at 4 °C
[18] = target: RSVF Cav1only; assay: ELISA after 1 week at 4 °C
[19] = target: sc9-10 Cav1only 98-361; assay: ELISA after 1 week at 4 °C
[20] = target: sc9-10 Cav1only 98-362; assay: ELISA after 1 week at 4 °C
[21] = target: sc9-10 Cav1only 146-458; assay: ELISA after 1 week at 4 °C
[22] = target: sc9-10 Cav1only 100-362; assay: ELISA after 1 week at 4 °C
[23] = target: sc9-10 Cav1only; assay: ELISA after 1 week at 4 °C
[24] = target: sc9-10 Cav1only 100-361; assay: ELISA after 1 week at 4 °C
[25] = target: sc10 DS-Cav1; assay: BLI (Octet), F on Ni-NTA tips, Fab in solution
[26] = target: sc9-10 DS-Cav1 Q98C, Q361C L95M-I221M-R429K (B18537); assay: BLI (Octet), F on Ni-NTA tips, Fab in solution
[27] = target: sc9-10 DS-Cav1 N183GC,N428C; assay: BLI (Octet), F on Ni-NTA tips, Fab in solution
[28] = target: sc9-10 DS-Cav1 A149C, Y458C S46G-S215P-K465Q (A2); assay: BLI (Octet), F on Ni-NTA tips, Fab in solution
[29] = target: sc11 DS-Cav1; assay: BLI (Octet), F on Ni-NTA tips, Fab in solution
[30] = target: sc9-10 DS-Cav1 A149C, Y458C S46G-N67I-E92D-S215P-K465Q (A2); assay: BLI (Octet), F on Ni-NTA tips, Fab in solution
[31] = target: sc9-10 DS-Cav1 A149C, Y458C S46G-E92D-S215P-K465Q (A2); assay: BLI (Octet), F on Ni-NTA tips, Fab in solution
[32] = target: RSV F sc9-10 DS-Cav1 (human RSV subtype A (strain A2)); assay: BLI (Octet), F on Ni-NTA tips, Fab in solution
[33] = target: sc9-10 A DS-Cav1 A149C, Y458C; assay: BLI (Octet), F on Ni-NTA tips, Fab in solution
[34] = target: RSV F sc9-9 DS-Cav1 (human RSV subtype A (strain A2)) (UniProt P03420); assay: BLI (Octet), F on Ni-NTA tips, Fab in solution
[35] = target: RSV F sc9 DS-Cav1 (human RSV subtype A (strain A2)); assay: BLI (Octet), F on Ni-NTA tips, Fab in solution
[36] = target: sc9-24 DS-Cav1; assay: BLI (Octet), F on Ni-NTA tips, Fab in solution
[37] = target: sc9-10 DS-Cav1 N183GC, N428C S46G-N67I-E92D-S215P-K465Q (A2); assay: BLI (Octet), F on Ni-NTA tips, Fab in solution
[38] = target: sc9 DS-Cav1-105Q; assay: BLI (Octet), F on Ni-NTA tips, Fab in solution
[39] = target: sc9-10 DS-Cav1 Q98C, Q361C S46G-E92D-L95M-S215P-I217P-I221M-R429K-K465Q (Long (VR26)); assay: BLI (Octet), F on Ni-NTA tips, Fab in solution
[40] = target: RSV F DS-Cav1 (human RSV subtype A (strain A2)) (UniProt P03420); assay: BLI (Octet), F on Ni-NTA tips, Fab in solution
[41] = target: sc8 DS-Cav1; assay: BLI (Octet), F on Ni-NTA tips, Fab in solution
[42] = target: sc9-19 DS-Cav1; assay: BLI (Octet), F on Ni-NTA tips, Fab in solution
[43] = target: bRSV F 391-2 sc9 DS-Cav1 Q98C Q361C (bovine RSV, strain 391-2) (UniProt P22167); assay: Fab binding to purified bRSV F trimer (Octet BLI as in Example 1)
[44] = target: bRSV F 391-2 DS-Cav1 (bovine RSV, strain 391-2) (UniProt P22167); assay: as above
[45] = target: bRSV F ATue51908 DS-Cav1 (bovine RSV, strain ATue51908) (UniProt P22167); assay: as above
[46] = target: bRSV F strain 391-2 sc9-10, DS-Cav1, Q98C-Q361C (bovine RSV, strain 391-2); assay: as above
[47] = target: bRSV F ATue51908 sc9-10 DS-Cav1 A149C Y458C (bovine RSV, strain ATue51908 (NP_048055.1)); assay: as above
[48] = target: bRSV F RB94 DS-Cav1 (bovine RSV, strain RB94) (UniProt P23728); assay: as above

D25 antibody
ELISA signal (antigenicity) [1]: 0.902
ELISA signal (antigenicity) [2]: 1.76
ELISA signal (antigenicity) [3]: 1.4
ELISA signal (antigenicity) [4]: 1.14
ELISA signal (antigenicity) [5]: 2.13
T1/2 of D25 reactivity at 60 °C [6]: 42.4 h
T1/2 of D25 reactivity at 60 °C [7]: 23.4 h
T1/2 of D25 reactivity at 60 °C [8]: 26.4 h
T1/2 of D25 reactivity at 60 °C [9]: 26.7 h
T1/2 of D25 reactivity at 60 °C [10]: 16.5 h
T1/2 of D25 reactivity at 60 °C [11]: 23.3 h
T1/2 of D25 reactivity at 60 °C [12]: 3.2 h

MPE8 (antibody)
ELISA signal (antigenicity) [13]: 1.28
ELISA signal (antigenicity) [14]: 0.228
ELISA signal (antigenicity) [15]: 2.66
ELISA signal (antigenicity) [16]: 2.32
ELISA signal (antigenicity) [17]: 2.5
ELISA signal (antigenicity) [18]: 3.08
ELISA signal (antigenicity) [1]: 2.77
ELISA signal (antigenicity) [19]: 1.4
ELISA signal (antigenicity) [2]: 1.28
ELISA signal (antigenicity) [3]: 0.625
ELISA signal (antigenicity) [20]: 0.845
ELISA signal (antigenicity) [21]: 1.85
ELISA signal (antigenicity) [22]: 0.298
ELISA signal (antigenicity) [4]: 0.734
ELISA signal (antigenicity) [23]: 3.54
ELISA signal (antigenicity) [5]: 2.16
ELISA signal (antigenicity) [24]: 0.786
T1/2 of MPE8 reactivity at 60 °C [6]: 48.3 h
T1/2 of MPE8 reactivity at 60 °C [7]: 11.2 h
T1/2 of MPE8 reactivity at 60 °C [8]: 12.7 h
T1/2 of MPE8 reactivity at 60 °C [9]: 12.6 h
T1/2 of MPE8 reactivity at 60 °C [10]: 14.4 h
T1/2 of MPE8 reactivity at 60 °C [11]: 35.1 h
T1/2 of MPE8 reactivity at 60 °C [12]: 2 h

MPE8 Fab
Kd [25]: 0.8 nM
Kd [26]: 0.2 nM
Kd [27]: 0.1 nM
Kd [28]: 0.4 nM
Kd [29]: 1.6 nM
Kd [30]: 0.2 nM
Kd [31]: 0.2 nM
Kd [32]: 0.8 nM
Kd [33]: 0.1 nM
Kd [34]: < 0.01 nM
Kd [35]: 0.8 nM
Kd [36]: 0.8 nM
Kd [37]: 0.2 nM
Kd [38]: 0.8 nM
Kd [39]: 0.2 nM
Kd [40]: 0.5 nM
Kd [41]: 0.5 nM
Kd [42]: 1 nM
Kd [43]: 0.4 nM
Kd [44]: 0.2 nM
Kd [45]: 0.2 nM
Kd [46]: 0.8 nM
Kd [47]: 0.5 nM
Kd [48]: 0.2 nM

Mota (antibody)
ELISA signal (antigenicity) [13]: 1.38
ELISA signal (antigenicity) [14]: 2.07
ELISA signal (antigenicity) [15]: 2.71
ELISA signal (antigenicity) [16]: 2.5
ELISA signal (antigenicity) [17]: 2.55
ELISA signal (antigenicity) [18]: 3.35
ELISA signal (antigenicity) [1]: 3.42
ELISA signal (antigenicity) [19]: 2.24
ELISA signal (antigenicity) [2]: 1.61
ELISA signal (antigenicity) [3]: 1.11
ELISA signal (antigenicity) [20]: 0.828
ELISA signal (antigenicity) [21]: 1.95
ELISA signal (antigenicity) [22]: 1.53
ELISA signal (antigenicity) [4]: 1.04
ELISA signal (antigenicity) [23]: 3.59
ELISA signal (antigenicity) [5]: 1.72
ELISA signal (antigenicity) [24]: 2.8

From patent publication US20190112340A1
